For one substance, Kd results are on record in PMC4021362.

In this data set the test system is Hydra Myc2 p15;Hydra Max p22 (Hydra magnipapillata?;Hydra magnipapillata?). Kind of data set: EMSA. Particulars: equimolar mixture, heterodimer; EMSA with 0.3 ng (25,000 cpm) 32P-labeled 18-mer dsDNA; binding buffer, salt, pH and temperature not given in the material. (In general: A gel shift assay detects complexes by their altered migration in electrophoresis.)

In the case of E-box USF 18-mer, the Kd (in general, the constant that tells how readily two partners part at equilibrium) turned out to be 17.4 nM.
